Measured values reported in US20250243292A1 (published 2025).
Residue numbers refer to the chain shown, from its start.

T1: CD24-GST fusion protein
T1 chain: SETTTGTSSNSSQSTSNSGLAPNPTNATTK

B1: PP6368 (antibody, V domains shown)
VH: EVKFEESGGGLVQPGGSIKLSCAASGVTFSEAWMDWVRQSPEKGLEWVAEIRDKPNSYVTYYAESVKGRFTISRDDSKSRVYLQMNNLRTEDTGIYYCTGAMDYWGQGTSVTVSS
VL: DIVMTQTPLSLSVTIGQPASISCKSSQSLLYSNGKTYLNWLQQRPGQSPKRLIYQVSKLDPGIPDRFSGSGSETDFTLKISRVEAEDLGIYYCMQGTYLPWTFGGGTKLEIKR
B2: PP6369 (antibody, V domains shown)
VH: B1 VH with T28P, E31G, P55T, N56K, S57N
VL: B1 VL
B3: PP6236 (antibody, V domains shown)
VH: B1 VH with K54N, P55T, N56T, S57N
VL: B1 VL with T97A, Y98S
B4: PP6372 (antibody, V domains shown)
VH: B1 VH with P55Q, S57E
VL: B1 VL with T97S, Y98S
B5: PP6235 (antibody, V domains shown)
VH: B1 VH with T28A, E31G, P55T, N56K, S57N, I95V
VL: B1 VL with T97A, Y98S
B6: PP6371 (antibody, V domains shown)
VH: B1 VH with S40T, K54R, P55E, N56T, S57K
VL: B1 VL with Y98S
B7: PP6226 (antibody, V domains shown)
VH: B1 VH with P55T, N56K, S57N
VL: B1 VL with M94L, Y98S, L99Y
B8: PP6370 (antibody, V domains shown)
VH: B1 VH with P55T, N56K, S57N, S79G
VL: B1 VL
B9: PP6388 (antibody, V domains shown)
VH: B1 VH with S40T, K54R, P55E, N56T, S57K
VL: B1 VL
B10: PP6373 (antibody, V domains shown)
VH: B1 VH
VL: B1 VL with T97S, Y98S
B11: PP6387 (antibody, V domains shown)
VH: B1 VH with P55T, N56K, S57N, S79G
VL: B1 VL with T97S, Y98S
B12: PP6234 (antibody, V domains shown)
VH: B1 VH with P55T, N56K, S57N
VL: B1 VL with I63T, T97A, Y98S, L99V
B13: PP6231 (antibody, V domains shown)
VH: B1 VH with K54N, P55T, N56T, S57N
VL: B1 VL with M94L, Y98S, L99Y
B14: PP6228 (antibody, V domains shown)
VH: B1 VH with T28A, E31G, P55T, N56K, S57N, I95V
VL: B1 VL with M94L, Y98S, L99Y
B15: PP6232 (antibody, V domains shown)
VH: B1 VH with P55T, N56K, S57N
VL: B1 VL with I63T, Y98S, L99T
B16: PP6233 (antibody, V domains shown)
VH: B1 VH with P55T, N56K, S57N
VL: B1 VL with T97A, Y98S
B17: PP6230 (antibody, V domains shown)
VH: B1 VH with P55S, N56T, S57N
VL: B1 VL with M94L, Y98S, L99Y

Molecular target: T1, CD24-GST fusion protein
Assay: competitive ELISA

Row | IC50 | Binder
1 | 0.0299 mg/L | B1
2 | 0.0611 mg/L | B2
3 | 0.0336 mg/L | B3
4 | 0.0269 mg/L | B4
5 | 0.0419 mg/L | B5
6 | 0.0345 mg/L | B6
7 | 0.0856 mg/L | B7
8 | 0.0642 mg/L | B8

Molecular target: T1, CD24-GST fusion protein
Assay: competitive ELISA
Remark: another data set of the same source

Row | IC50 | Binder
9 | 0.0268 mg/L | B4
10 | 0.0249 mg/L | B9
11 | 0.0415 mg/L | B5
12 | 0.0207 mg/L | B10
13 | 0.0284 mg/L | B11
14 | 0.0834 mg/L | B7

Molecular target: T1, CD24-GST fusion protein
Assay: competitive ELISA
Remark: another data set of the same source

Row | IC50 | Binder
15 | 0.0426 mg/L | B12
16 | 0.0768 mg/L | B13
17 | 0.0888 mg/L | B14
18 | 0.0713 mg/L | B15
19 | 0.0372 mg/L | B16
20 | 0.0411 mg/L | B5
21 | 0.0589 mg/L | B17
22 | 0.0814 mg/L | B7
